The series can be described thus: protein stability index of a GFP-peptide fusion (GPS, HEK-293T) (PSI 1-6); higher = more stable. The note with it: c terminus: a fixed tail appended.

In the supplement of paper PMC10567573 one finds protein stability index data, which are given here for 73 sequences.

± gives the standard deviation.
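Note: 24-mer peptide tiles fused after GFP, lentivirally expressed, FACS-sorted into six equal bins by GFP/DsRed ratio, decoded by Illumina sequencing, PSI is the read-weighted mean bin number.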

The sequence FKAWLHNSGTDQEQIHLLLSSQCF [M1AP] yielded a protein stability index (treatment: DMSO) of 2.6 ± 0.66 and a protein stability index (treatment: MLN4924 1 uM, 8 h) of 2.43 ± 0.39.
Regarding FLDIDTSAVEKEPARAPPEPPHNL [SERTAD3], the protein stability index (treatment: DMSO) worked out at 4.84 ± 0.13 and the protein stability index (treatment: MLN4924 1 uM, 8 h) is 4.98 ± 0.45.
Turning to FLIEGPLINTIRVVCASYEDYGHW [PLEKHN1], the protein stability index reads like this: (treatment: DMSO) 3.56 ± 0.49; (treatment: MLN4924 1 uM, 8 h) 2.58 ± 0.94.
FLKQGDSADETTAHKTEEENSDSD [CMTM3]: the protein stability index (treatment: DMSO) came out at 5.63 ± 0.25 and the protein stability index (treatment: MLN4924 1 uM, 8 h) was found to be 5.58 ± 0.43.
For FLLFLLTGIVSVAFLLLPLPDELG [MOSPD3], in that order: 3.36 ± 0.39 and 2.89 ± 0.9.
The corresponding values for FLYMLMEYVPGGELFSYLRNRGRF [PRKX] are 2.75 ± 0.29 and 2.42 ± 0.28.
The corresponding values for FMECLVDARMLDHLTKKDLRVHLK [PPFIA4] are 2.4 ± 0.32 and 2.67 ± 0.24.
FNNGEYAEAEALYSAYIRRCACAA [TTC32] gave a protein stability index (treatment: DMSO) of 2.39 ± 0.19 and a protein stability index (treatment: MLN4924 1 uM, 8 h) of 2.64 ± 0.46.
Turning to FQNFSLHDPLYGKLFSTYLRPPHT [LPCAT4], the protein stability index is, setting by setting: (treatment: DMSO) 2.27 ± 0.36; (treatment: MLN4924 1 uM, 8 h) 2.12 ± 0.19.
The corresponding values for FQREALENSHTNTEVLRNMGFAAK [CHMP4C] are 3.59 ± 0.21 and 4.08 ± 0.28.
For FRCPTCRHEVIMDRHGVYGLQRNL [TRIM63], in that order: 2.31 ± 0.3 and 2.83 ± 0.52.
For FSGGKSGGNKKSDGVKESSESTNT [CAMK2A], in that order: 5.25 ± 0.2 and 5.36 ± 0.34.
Regarding FSGTDWMLEKMDLKEFDLDALLGI [ATF4], the protein stability index by setting is: (treatment: DMSO) 2.33 ± 0.11; (treatment: MLN4924 1 uM, 8 h) 2.5 ± 0.49.
For FSKASSSLQLVFGIELMEVDPIGH [MAGEA3], in that order: 2.62 ± 0.6 and 2.29 ± 0.46.
The corresponding values for FSLNPRSGSLITAGRIDREELCAQ [PCDHGA10] are 3.83 ± 0.38 and 3.93 ± 0.37.
FSQLYLYSFISLFIYMVLSLFIAL [MCOLN1]: the protein stability index runs as follows: (treatment: DMSO) 3.28 ± 0.21; (treatment: MLN4924 1 uM, 8 h) 3.24 ± 0.21.
In the case of FTEYQASAFGNVKLVVHDCPVWDI [RHOBTB3], the protein stability index worked out at 2.54 ± 0.72 (treatment: DMSO) and 2.46 ± 0.41 (treatment: MLN4924 1 uM, 8 h).
With FTFLGKKCVTMSSAVVQLYAADRN [WASL], the protein stability index worked out at 2.33 ± 0.34 (treatment: DMSO) and 2.43 ± 0.36 (treatment: MLN4924 1 uM, 8 h).
For FTSGFNAAALDYEADGSTNNGIFQ [SPACA3], in that order: 2.67 ± 0.53 and 3.48 ± 0.74.
For FVADEGICYLPHWMMQNLLLEEGG [UFD1], in that order: 2.36 ± 0.62 and 2.28 ± 0.38.
Regarding FVESSGGGSSAVGQFVSLDGAGKT [BRF1], the protein stability index is, setting by setting: (treatment: DMSO) 2.94 ± 0.52; (treatment: MLN4924 1 uM, 8 h) 3.44 ± 0.58.
With FYTCASHVTVVILFFVPCIFLYAR [OR4A15], the protein stability index reads like this: (treatment: DMSO) 3.13 ± 0.35; (treatment: MLN4924 1 uM, 8 h) 3.08 ± 0.26.
For GADPDSRDFDNNTPLHIAAQNNCP [FEM1A], in that order: 4.96 ± 0.39 and 5.18 ± 0.88.
With GAGDWREKEAKDLTELVQRRITYL [FUT8], the protein stability index reads like this: (treatment: DMSO) 3.61 ± 0.27; (treatment: MLN4924 1 uM, 8 h) 3.31 ± 0.3.
GAYKSSTICYCPEKGTWTELEGDV [KLHL14]: the protein stability index runs as follows: (treatment: DMSO) 4.22 ± 0.32; (treatment: MLN4924 1 uM, 8 h) 4.38 ± 0.32.
With GDDAPKEEVDTGAVNLIESGACGA [INTS4], the protein stability index (treatment: DMSO) worked out at 5.5 ± 0.25 and the protein stability index (treatment: MLN4924 1 uM, 8 h) is 5.36 ± 0.18.
The corresponding values for GDRMFYRDWWNSTSFSNYYRTWNV [SOAT2] are 2.19 ± 0.16 and 2.28 ± 0.39.
Consider GECRQMSSSSQIGNDSFQLQVTED [CLCN6], for which the protein stability index was 5.06 ± 0.22 (treatment: DMSO) and 5.09 ± 0.25 (treatment: MLN4924 1 uM, 8 h).
As to GEDIPEKIKDEVHPEVKCVGSVAL [C8orf76], the protein stability index (treatment: DMSO) amounted to 4.84 ± 0.39 and the protein stability index (treatment: MLN4924 1 uM, 8 h) was 4.81 ± 0.31.
Turning to GEDTRLSASEMKQLIDNILEESDI [CIB1], the protein stability index turned out to be 5.27 ± 0.27 (treatment: DMSO) and 5.26 ± 0.25 (treatment: MLN4924 1 uM, 8 h).
In the case of GEKPHRCPQCGKCFARKSQLTGHQ [ZNF449], the protein stability index runs as follows: (treatment: DMSO) 4.66 ± 0.23; (treatment: MLN4924 1 uM, 8 h) 4.85 ± 0.31.
The corresponding values for GELRLGKNLYTNEYVAIKLEPMKS [CSNK1G3] are 2.32 ± 0.29 and 2.27 ± 0.7.
For GEYPRWDAWSGSNAYHIERLMSFR [CRYBA1], the protein stability index by setting is: (treatment: DMSO) 2.17 ± 0.22; (treatment: MLN4924 1 uM, 8 h) 2.41 ± 0.28.
For GFAFITFENPADAKNAAKDMNGKS [RBMY1A1], in that order: 3.55 ± 0.46 and 3.68 ± 0.36.
GFEFSVPFTEMKLRPRNFRSPAGG [TNXB] gave a protein stability index (treatment: MLN4924 1 uM, 8 h) of 3.66 ± 0.66.
GGEMSPQVETSIEGTIPFSKPVKV [INTS4]: the protein stability index is, setting by setting: (treatment: DMSO) 4.77 ± 0.2; (treatment: MLN4924 1 uM, 8 h) 4.76 ± 0.17.
The corresponding values for GGFAKCYEMTDLTNNKVYAAKIIP [PLK2] are 2.52 ± 0.38 and 2.81 ± 0.29.
For the sequence GGGSLSGGGGSRSISASSARFVSS [KRT15], the protein stability index is, setting by setting: (treatment: DMSO) 4.23 ± 0.47; (treatment: MLN4924 1 uM, 8 h) 4.39 ± 0.23.
The corresponding values for GGKIIMPPSALDQLSRLNITYPML [UFD1] are 2.16 ± 0.089 and 2.28 ± 0.2.
With GIPKGVMLSHDNITWIAGAVTKDF [ACSBG2], the protein stability index was 2.67 ± 0.15 (treatment: DMSO) and 2.74 ± 0.15 (treatment: MLN4924 1 uM, 8 h).
Consider GKLSWGTMARALGRFKLSIPHTHL [WDR88], for which the protein stability index runs as follows: (treatment: DMSO) 2.31 ± 0.28; (treatment: MLN4924 1 uM, 8 h) 2.13 ± 0.11.
The corresponding values for GKRRKDEISVDSLDFSKKILHTAW [PPP2R2B] are 2.34 ± 0.2 and 2.52 ± 0.049.
For GKVQDIKAREKDGKGRTASPINSP [FSD1], in that order: 4.99 ± 0.37 and 5.25 ± 0.24.
With GLGNTWPGASGSAQSLDRLGIMGA [ATP23], the protein stability index is, setting by setting: (treatment: DMSO) 3.3 ± 0.24; (treatment: MLN4924 1 uM, 8 h) 3.48 ± 0.3.
As for GLPPSGSWQDLKDHMREAGDVCYA [SRSF1], the protein stability index came to 3.65 ± 0.25 (treatment: DMSO) and 3.83 ± 0.48 (treatment: MLN4924 1 uM, 8 h).
As to GMLCSFRIPGAWSCAWSLNIQANN [DCAF4], the protein stability index worked out at 2.69 ± 0.8 (treatment: DMSO) and 2 ± 0.29 (treatment: MLN4924 1 uM, 8 h).
On to GMVRAHGVRVSVPCPSTTCCRACS [BET1L], for which the protein stability index (treatment: DMSO) worked out at 3.04 ± 0.29 and the protein stability index (treatment: MLN4924 1 uM, 8 h) is 3.4 ± 0.51.
Take GNFESLDLAEFAKKQPWWRKLFGQ [FUNDC2]: the protein stability index reads like this: (treatment: DMSO) 3.31 ± 0.24; (treatment: MLN4924 1 uM, 8 h) 3.29 ± 0.35.
For GNGALSNISDLPFLAENSAFPKMA [LCOR], in that order: 3.72 ± 0.22 and 3.49 ± 0.17.
In turn, GPAPPPLPPALVPAGGLAPGGGRG [WAS] had a protein stability index (treatment: DMSO) of 5.09 ± 0.13 and a protein stability index (treatment: MLN4924 1 uM, 8 h) of 5.09 ± 0.18.
On to GPDTQDLEGQSPPQSLPSTPKAAW [PBXIP1], for which the protein stability index came out at 5.2 ± 0.28 (treatment: DMSO) and 5.07 ± 0.18 (treatment: MLN4924 1 uM, 8 h).
For GPFDQGSPFAQELLDDGQQASPYH [ELF3], in that order: 5.16 ± 0.18 and 4.96 ± 0.13.
Regarding GPLLGTNGATDDSKTNLIVNYLPQ [ELAVL3], the protein stability index was determined as 3.84 ± 0.3 (treatment: DMSO) and 3.92 ± 0.24 (treatment: MLN4924 1 uM, 8 h).
GRGPPSEPVLTQTSEQAPSSAPRD [PTPRD]: the protein stability index reads like this: (treatment: DMSO) 5.74 ± 0.22; (treatment: MLN4924 1 uM, 8 h) 5.34 ± 0.31.
Regarding GRKDITSILRAPAYPLELQGQPDP [MOSPD3], the protein stability index (treatment: DMSO) amounted to 4.26 ± 0.15 and the protein stability index (treatment: MLN4924 1 uM, 8 h) amounted to 4.28 ± 0.35.
In the case of GRQERGLPPSMERGYPPPRDSYSS [RBMX], the protein stability index is, setting by setting: (treatment: DMSO) 4.77 ± 0.088; (treatment: MLN4924 1 uM, 8 h) 4.71 ± 0.19.
For GRRAALYVHWPYCEKRCSYCNFNK [RSAD1], in that order: 2.23 ± 0.45 and 2.96 ± 0.55.
Take GRVLRKLPFLAHALYVQAPTVTIE [TRIP13]: the protein stability index runs as follows: (treatment: DMSO) 2.32 ± 0.54; (treatment: MLN4924 1 uM, 8 h) 2.05 ± 0.45.
The corresponding values for GSFHGPGHISLRRENSSDSPKELK [DLC1] are 4.99 ± 0.39 and 5.09 ± 0.41.
For GSGTIDFEEFLVMMVRQMKEDAKG [TNNC2], in that order: 3.25 ± 0.88 and 3.88 ± 0.8.
For GSMVEIAKQLQAVKRKIRDESLCP [TRIM39], in that order: 3.09 ± 0.24 and 3.15 ± 0.24.
Consider GSSDASGSYSSTMNGHQNGLDSPP [ESRRG], for which the protein stability index is, setting by setting: (treatment: DMSO) 4.93 ± 0.13; (treatment: MLN4924 1 uM, 8 h) 4.99 ± 0.27.
As to GTPSLLRGKRGGHATNYRIVAPRS [EMID1], the protein stability index runs as follows: (treatment: DMSO) 4.1 ± 0.12; (treatment: MLN4924 1 uM, 8 h) 3.88 ± 0.32.
With GVHVRRTDKVGTEAAFHPIEEYMV [FUT8], the protein stability index runs as follows: (treatment: DMSO) 3.36 ± 0.29; (treatment: MLN4924 1 uM, 8 h) 3.58 ± 0.27.
The corresponding values for GVPGQPLNFKAEPESETSILLSWT [PTPRD] are 2.83 ± 0.27 and 2.98 ± 0.49.
In the case of GWKSMIQSHPHLVAEAFRALASAQ [SPOPL], the protein stability index came to 2.4 ± 0.44 (treatment: DMSO) and 2.3 ± 0.17 (treatment: MLN4924 1 uM, 8 h).
Take HCIQQILESVNHCHLNGIVHRDLK [CAMK2D]: the protein stability index reads like this: (treatment: DMSO) 2.26 ± 0.047; (treatment: MLN4924 1 uM, 8 h) 2.36 ± 0.5.
In the case of HDKIRPISSIGQVQSYMEHYCNSS [SPACA9], the protein stability index is, setting by setting: (treatment: DMSO) 3.6 ± 0.4; (treatment: MLN4924 1 uM, 8 h) 3.72 ± 0.18.
The corresponding values for HEKIGFPAARRCHSCVQIKNDVFI [KLHDC10] are 1.89 ± 0.31 and 1.73 ± 0.27.
For HFAAASTHGALCLELLVNNGADVN [ANKRD44], in that order: 2.73 ± 0.23 and 2.62 ± 0.38.
For HFLSKMPEAEENKQIIRKHAQTFV [CCND1], in that order: 3.39 ± 0.21 and 3.43 ± 0.29.
Take HGISIPEPEDMETLEEKFSDVHPV [CDKL4]: the protein stability index is, setting by setting: (treatment: DMSO) 5.29 ± 0.2; (treatment: MLN4924 1 uM, 8 h) 4.98 ± 0.28.
In the case of HHSLQAHFRPRFHPLPTVIIVNLL [TMEM192], the protein stability index reads like this: (treatment: DMSO) 2.68 ± 0.28; (treatment: MLN4924 1 uM, 8 h) 2.35 ± 0.48.
